Assay results as given in the DeepSol protein solubility set.

test: soluble on expression in E. coli; label from the status in PepcDB or PDB records

Soluble on expression in E. coli, not soluble:
MGSDKIHHHHHHMELKARAVGVEIIPKGKIIYYSVPNGDEYERGDLVLVLGDFGLEVGKVLIPPREVVIDEVGYELKAVIRKLTDEDLEQYRKNVEDALKAFQICKQKIKEHGLPMKLLYAKYTFDRTRLIFFFSAEGRVDFRELVRDLAKIFKTRIELRQVGVRDEMKFFGGLGLCGLPTCCSTFLREFTSVTLKHAKKQQMMINPAKISGPCRRLLCCLTYEYDFYEKELEGIPDEGSTITYEGKRYKVVNVNVFLRTVTLFSEQEGEMIKLPFDYFRKGE, MGSDKIHHHHHHMELKKLMEHISIIPDYRQTWKVEHKLSDILLLTICAVISGAEGWEDIEDFGETHLDFLKQYGDFENGIPVHDTIARVVSCISPAKFHECFINWMRDCHSSDDKDVIAIDGKTLRHSYDKSRRRGAIHVISAFSTMHSLVIGQIKTDEKSNEITAIPELLNMLDIKGKIITTDAMGCQKDIAEKIQKQGGDYLFAVKGTQGRLNKAFEEKFPLKELNNPEHDSYAISEKSHGREEIRLHIVCDVPDELIDFTFEWKGLKKLCVAVSFRSIIAEQKKEPEMTVRYYISSADLTAEKFATAIRNHWHVENKLHWRLDVVMNEDDCKIRRGNAAELFSGIRHIAINILTNDKVFKAGLRRKMRKAAMDRNYLASVLAGSGLS, MGSDKIHHHHHHMENKPFIFGVATSGDNFTDREKETERLLLNFQHGVNTVLISPRRWGKTSLVQKACHLAQSDKLKVVYLDIFSCRSDRDFYDAFAAAILKQTSSKLDEWLENTKLFLSRISPKISIGTDPMTDFSISLEMNPQSNDVDEILQLPEKIAQKKGYNIVVCIDEFQQIAEFKDSKTFQKRLRSVWQLQKSVSYCLFGSKKHLMNELFEKKSLPFYKFGDAIYLPKIGTCDWINYICGRFEATGKQISKELAEKICQRVDNHSSYVQQLAWLVWIHTDKVATEQNFEEAYQDIIDQNTPLFEKQTESLTTYQMNFLRAILDGVHSEFTTQEILQKYKLGSSANVSIVKRALVKKELIEIEKRKVIIPDPVMKVWLKKELGGV, MGSDKIHHHHHHMEPQWDDMKVFLAVARESSLSGAGRVLKMDPATVGRRVARFEAALKTSLFVKSPQGYALSAAGDRLLGHAEAAELAMRAGEEALTGPSDTLSGQIRIGAPDGCANYILPQVCAAISKDNPDLDIQVVALPRVINLSRREADMAVTVSAPTAGKLLVQKITDYHLHLAATRHYLRDNHPIEKLEHLRDHRMIGYIPDMIFDRELDYLNDLGIERVSLASNSVSVQIKMLAEGSALGVVHDFSLPSHRTLRKVLKEEFSLTRSFYLVRHQGDQRSDRLNRFAEALSAGIRAEVERLEGLT, MGSDKIHHHHHHMEQATRTIYSEYAAYPETQGIIAVEKRQPRDSLTDQFDVLLLVITRDPSVEWTVKHYRLNTLRVSLHLVHEQVLSRWLILNANRRAVHWVSEGTIIFERNDYLTDLKKQLRNFPETERCLQMSLSFAKLLRRFQDGRNLFSRGNYYDAYTHVHHALHHLARLSVLEKGAHPEVVVWEQARLDDPDVYKLYEQLLLSEETLEQRIHLALIGLEHLLQSKVLSGGKYLFEVMRERDRPWTMHELMEESRLTELKVDLGSLVDFFIRKGLIRISYQRTKGLGVELVTYEPVV, MGSDKIHHHHHHMEQINHQWLPHLSKEIVEDARGPEFDAYLVALEGWRRGLTLRWHTKDSEAFREIKTWFVDRPGKLFSLRLEEKTHYFFRTRGDKVTNEAVAIGADKEKTKEYLAKAGIPIPEGRRFVAEIEDDEIISYAAEIGYPLVVKPTDGSFGRGVVTNIEDEVTFAEQLRHVRHVLNYKDVIVERHVAGKDYRLYVVGDKVVAAIERIPANVVGNGKQTIQELIEAKNEERQKNPRLISCPIKLDQEMKNHLAIQGYGLDTIPEDGEMVFLTNKSNISIGGDPVDQLDSLPEEVKQLAVQALQAVPQLPHGAVDILYDDKQPVEEGAVVLELNPTAQIGSLVFPMKGIARDVPAAIIDYYFPETKGMNGQKSRFYFDFSDVLEPLVTKTASVTTVSAAPLGEVYGKKYTVTGDVQGIDYHRGLRKQAFERKLSGFVKNLENGNIEVIVMGTDPESVNDFKQAIFEDPERSDVVDVFEESWEEPVKVGFEVKADLKMQVDQLKKMKLELETVQKDLKEAERKNIKYKKSLTWRMTLPFRKTLDVLKYFKRK, MGSDKIHHHHHHMEQTTQTQLVEIQQVVLRMSKYFVAFCEEHNLTCYFCGGGCIGAIRSQGFIPWDDDLDFFMPRPDYEKLKVLWPKYADTECYPLLVASKTYNDHNSFMTIRDAQTTFIKTYQDGLAIPHGIPIDIFPLDGAPKGNFQRKKQKIWALIYALFCSQVVPEKHGGILATGSRVLLNIFPSKKVRYHIWRFAEKRMTKYSFGSTPYVTELCVGPRYMGNIYHLEDFKSAIFVPFEDTKMPIPVGYKRYLTEVFGDYMQLPPEEDRQPHHEALIVDTKKSYTEYLKK, MGSDKIHHHHHHMERFPYEKLPESELKELKELGRLCRGDILKMTYIANSGHPGGSMSSIDLYLTVFKYAKLRPVDDPARDRIVISHGHTSPGVYAAMARLGFVDLDEVLAGFRHPASVFEGHVTRGVGIIDWTTGNLGQGLSAGLGFALASRFTGKDYHVFVLMSDAEQAKGQVAEARRVAKKYGVTNLTVIIDYNDAQISGRARDVMPVNIKENYLADGWRVIEIDGHDYEQIYLALKEAVEDELNPVAIIAKTVMGKGVSFMENEVKYHGKPLNREELEKALAELGIENDVDVYIEKRKQLPVEKHKKVYKTYPIKIDTGEPITYTSPTDNRSAFGKAILDLVKKNVNNPETTPIVAVDCDLKGSVKLDLLDKEFPERLLEVGVQEHNAAAMAGALSAEGVITFFADFGVFGISETYNQHRLNAINGTNLKVVVTHCGLNVGEDGKTHHGLDYVSGPMNWYGFKVIVPGDPNQTDRVVRYAAKEYGNFVIAMGRSKLPIILDENGKPFFGEGYTFEYGKIDVVRKGDDAVIITYGSTLCEAVNAADELKKEGVNVAVLNVSCPVDLDIETLKMVDGKPVLVVEDHNVFTGLGSFLGTTLLENGIIPKKYVRVGVPEFAVSGSYTMLYKLYGLDKDGIISRLREML, MGSDKIHHHHHHMERLQALEAWAARQLGQETVDIAPASADASFRRYFRVTAKGRDYIVMDAPPAHEDCGPFIAVARLFGDAGVHVPEVLAQDLDQGFLLLTDLGHTTYLSALNESTARELYLAANDALIRIQLASRPGVLPDYDRALLTRELMLFPEWYVAKHLGVELNAAQRATLDTVFERLLTNNLAQPQVYVHRDWHSRNLMVSDPNPGILDFQDAVFGPITYDLASIYRDAYIQWDEERQLDWVIRYWEKARAARLPVAADFGDFWRDFEWMGAQRHLKVLGIFARLYHRDGKDGYLKDMPLVMHYLRSVCGRYDELKPLLLLLDALQDRQPQAGYTF, MGSDKIHHHHHHMERSWTINGRFLAQPLTGVQRYAFEIVRALDELIVNQPLLASRLKIELLVPRDAKVPSLRAISTRAIAIAPMHGHLWEQAALAAHVRGGLLSFCNTGPLSVRKQILCIHDVNTRTYPQSYSLPFRLLYRTLLPALGRRVAAVATVSRYSAGELVRHRICGPDKITVIPNGHEHAASWKPRHSQRTRAVAGRDTIVVIGSAIAHKNTGLIIGMAERLAAVGLRIAVVGMSDARVYRTSGRKESASNVTWLGRLSDEELAALLQDCLCLAFPSFIEGFGLPPLEAMAIGCPIVVSNRASLPEICGEAALYASPNDAEAWFDRFMRVRNMPDVRDEMIGIGRMQASNFQWKASASRYLDIMAVLDGMSKPSGGPVAVSIA, MGSDKIHHHHHHMETPMTMSQVDAVVRDPASVVTAIESRFSCRAFSPDRPVSRQQVEEILRIARCAASSTNTQPWKVYVLQGDRRDALVAQVCAAHDATRADSSLTAEYGEVDGYYPSEWVSPYIDRRRHNGWTLYGHLGIGKGEKDKMHAQGQRNYRFFDAPVGLMFTIDRVMGRGSLIDYGMFLQTLMLAARALGLHTCPQAAWNNCAKIVLPFIGAGANEMLVCGMALGYADQSAPVNTYRTPRETVESFTRWI, MGSDKIHHHHHHMETPRREAFRYHEVEQHVLRLIDSKQYPPGSRLPSLRAVARTLSASLATVCHAYEELERRGVVESRPRSGYYVRTLPSPLPVPHSAPAEEEEPREANRSRLIATVLEAVGNPQMAPFGVVSPDPSLLPGKKLGQILAELSRRNAEQCVAYETIAGNAEYRRQIAKRACEDGMPTRASEVVATTGAMEALYIALRVLTRPGDNVLIQSPTYYCFLQLLETLGLRAVEIPSDPKHGINPADLTKALSTFEVAACILSGNFNNPDGALTPDAAKREIVDILAARGIPLVDDDVSADLHFDAQRPASFKQYDKKGLVVFCSSFSKTIAPGYRAGWMLPGRFMEKALEVKATTNVCCATPTQAAVGEFMRLGLYDRQLKKLRSAFQTQICAMHECIGSAFPDGTRVTSPRGGGVLWVELPAAVNGVELFFKARARRVGIAPGSIFSTRDRFSNYIRLSCCGIWNPRMEEALRDLGRLARELT, MGSDKIHHHHHHMEVKVGLAPMAGYTDSAFRTLAFEWGADFAFSEMVSAKGFLMNSQKTEELLPQPHERNVAVQIFGSEPNELSEAARILSEKYKWIDLNAGCPVRKVVKKGAGGALLKDLRHFRYIVRELRKSVSGKFSVKTRLGWEKNEVEEIYRILVEEGVDEVFIHTRTVVQSFTGRAEWKALSVLEKRIPTFVSGDIFTPEDAKRALEESGCDGLLVARGAIGRPWIFKQIKDFLRSGKYSEPSREEILRTFERHLELLIKTKGERKAVVEMRKFLAGYTKDLKGARRFREKVMKIEEVQILKEMFYNFIKEV, MGSDKIHHHHHHMEVTRTDKAVTLTWNKEEVSEGTVVFVSSSPKLEANSEPVFKVTNDVDHYSYDTKDIPIYFFLETPNGYYAIVSERILPLESVFNFRDMGGYASKNGKHVKWGKLYRSSNLVNINENDAALLQKLHIKWICDLRSSSEVKAQPTPAIEGILNKHIPIGTAKNEETKLPVTNDTTIYEPLMGESYRVFVQSVEGFREIFTEVLEDAKAGLPFVFHCTAGKDRTGVLGALLLTLLDVPEKTIFDDYAITNRYQDDILQEMGGIVSLFSSGTEKIDLETFRPMAEARPEYLEIAFDEMKKQYGSVANYLEKGIGITATEKAAFQKEMLE, MGSDKIHHHHHHMEWLEQLLGKEWSLVPAGGVTGDAYIAQNGQQKLFLKRNTSPFLAVLSAEGIVPKLLWTRRVTNGDVISAQKWLPGQKLEPEDMKLERVAKLLKKIHSSKALVQMIQRLGKQPLHAQELLQQLQLVLRGDIRDEETIQQGLQYLMDSLKDIEYNEFVVCHCDVNHNNWLLSDEDELFLIDWDGAVIADPALDLGMLLYWYIPRQEWSEWLGYYDIEMDESLLKRMRWYVIAQTILSIQWHTTKKQQAEAEYWHQYLQQLLASE, MGSDKIHHHHHHMEYISLNRLGGAAGCPADAEAAARFRAALPEGCKGTFAVARRIAPVIIDFDLVMQEGAASVSLAKGLGLPVVPCIRRQVERARTDFPQRLQLELTNCCNNDCVMCPRHGGHFTRKPKHMDLDLVRRALDEIAQHYNYQLQLFHIGEPLLHPRIFEILDMLEDYPTLGRKWISSKGQELTPDIMRRVLTSKVDYFNYSLLAMTPATYARIVPNGDYATVRGNLERLADLKRDLGVQRPYLRAQMIEMDEALHEIDAFLDTWADRVDLLSVNRLETFSNRIDAKVTSAIKPRESIGPRACKRLERGDLYILSNGEVTVCDTDFNGELSLGNLNETTLAEMARGARYRQIIDSHERGDYSQIELCRHCEDWNL, MGSDKIHHHHHHMEYQTRQWLEEALFDLLATKKSLHNISIAELSEHAQIARRTFYRYYHSKEQVLTNYLDRLIQDYIIELQTEKLTNFEDLVNLFFQYWSQYTESLKILQEANLLVLILQRYYDKLPAAYTTVMAPWHITNSDQRQISYDSRFIIGGLYSIFDEWLKTDHQTMPVNELVTTALNTIKRMKDS
